{"source": "patent US20250011397A1", "about": "(HOSPITAL FOR SICK CHILDREN, published 2025)", "binders": {"B1": {"name": "HD37 (anti-hCD19) mouse IgG2a, parental IgG (antibody)", "chain": "DILLTQTPASLAVSLGQRATISCKASQSVDYDGDSYLNWYQQIPGQPPKLLIYDASNLVSGIPPRFSGSGSGTDFTLNIHPVEKVDAATYHCQQSTEDPWTFGGGTKLEIKRADAAPTVSIFPPSSEQLTSGGASVVCFLNNFYPKDINVKWKIDGSERQNGVLNSWTDQDSKDSTYSMSSTLTLTKDEYERHNSYTCEATHKTSTSPIVKSFNRNECGGSSGSGSGSTGTSSSGTGTSAGTTGTSASTSGSGSGGGGGSGGGGSAGGTATAGASSGSGSSGSSSSGGTGTGQVQLQQSGAELVRPGSSVKISCKASGYAFSSYWMNWVKQRPGQGLEWIGQIWPGDGDTNYNGKFKGKATLTADESSSTAYMQLSSLASEDSAVYFCARRETTTVGRYYYAMDYWGQGTSVTVSSSQSFPNVFPLVSCESPLSDKNLVAMGCLARDFLPSTISFTWNYQNNTEVIQGIRTFPTLRTGGKYLATSQVLLSPKSILEGSDEYLVCKIHYGGKNRDLHVPIPSKPCPPCKCPAPNLLGGPSVFIFPPKIKDVLMISLSPIVTCVVVDVSEDDPDVQISWFVNNVEVHTAQTQTHREDYNSTLRVVSALPIQHQDWMSGKEFKCKVNNKDLPAPIERTISKPKGSVRAPQVYVLPPPEEEMTKKQVTLTCMVTDFMPEDIYVEWTNNGKTELNYKNTEPVLDSDGSYFMYSKLRVEKKNWVERNSYSCSVVHEGLHNHHTTKSFSRTPGK", "notes": "also called mIgG2a control; HD37 single chain IgG2a"}, "B2": {"name": "mAb 52 (antibody, V domains shown)", "VH": "QVQLVQSGAEVKKPGSSVKVSCKASGYTFTSYGISWVRQAPGQGLEWMGGIIPMFGTTNYAQKFQGRVTITADKSTSTAYMELSSLRSEDTAVYYCARDRGDTIDYWGQGTLVTVSS", "VL": "DIQMTQSPSSLSASVGDRVTITCRASQGISNNLNWYQQKPGKAPKLLIYAASSLESGVPSRFSGSGSGTDFTLTISSLQPEDFATYYCQQGNGFPLTFGPGTKVDIKR", "notes": "also called IgG 52; antibody 52"}, "B3": {"name": "4A8 IgG (antibody, V domains shown)", "VH": "EVQLVESGAEVKKPGASVKVSCKVSGYTLTELSMHWVRQAPGKGLEWMGGFDPEDGETMYAQKFQGRVTMTEDTSTDTAYMELSSLRSEDTAVYYCATSTAVAGTPDLFDYYYGMDVWGQGTTVTVSS", "VL": "EIVMTQSPLSSPVTLGQPASISCRSSQSLVHSDGNTYLSWLQQRPGQPPRLLIYKISNRFSGVPDRFSGSGAGTDFTLKISRVEAEDVGVYYCTQATQFPYTFGQGTKVDIK", "notes": "also called IgG 4A8"}}, "key": {"mouse FcRn [1]": {"target": "T1, mouse FcRn (mouse, UniProt Q61559 22-297; P01887 21-119)", "T1 sequence (looked up) 1": "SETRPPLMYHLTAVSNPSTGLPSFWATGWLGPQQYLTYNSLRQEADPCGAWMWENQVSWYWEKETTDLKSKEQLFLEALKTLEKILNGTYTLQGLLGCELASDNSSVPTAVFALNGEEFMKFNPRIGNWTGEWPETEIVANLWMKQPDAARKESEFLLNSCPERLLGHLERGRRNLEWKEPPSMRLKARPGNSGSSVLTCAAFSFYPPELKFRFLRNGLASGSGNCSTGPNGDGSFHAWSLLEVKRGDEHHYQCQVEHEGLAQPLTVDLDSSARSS", "T1 sequence (looked up) 2": "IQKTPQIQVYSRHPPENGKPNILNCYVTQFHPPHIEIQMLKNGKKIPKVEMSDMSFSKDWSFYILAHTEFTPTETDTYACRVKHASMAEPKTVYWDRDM"}, "mouse FcγRI": {"target": "T2, mouse FcγRI (mouse, UniProt P26151 25-297)", "T2 sequence (looked up)": "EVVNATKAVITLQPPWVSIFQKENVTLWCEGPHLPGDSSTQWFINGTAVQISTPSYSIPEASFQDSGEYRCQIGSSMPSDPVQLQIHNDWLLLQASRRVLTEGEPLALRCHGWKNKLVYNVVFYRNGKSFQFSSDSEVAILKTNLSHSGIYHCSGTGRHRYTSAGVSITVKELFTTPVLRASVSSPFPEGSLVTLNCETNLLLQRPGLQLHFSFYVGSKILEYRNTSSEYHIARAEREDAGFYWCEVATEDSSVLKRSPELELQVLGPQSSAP"}, "mouse FcRn [2]": {"target": "T1, mouse FcRn", "assay": "pH 5.6"}, "[3]": {"target": "T3, SARS-CoV-2 Spike on HIV-based pseudotyped virus (Spike plasmid BEI NR52310) (SARS-CoV-2, UniProt P0DTC2 14-1273)", "assay": "cell-based or functional assay"}, "[4]": {"target": "T3, SARS-CoV-2 Spike on HIV-based …", "assay": "cell-based or functional assay", "remark": "listed apart in the source"}, "[5]": {"target": "Spike of authentic SARS-CoV-2/SB2-P4-PB virus (SARS-CoV-2, UniProt P0DTC2 14-1273)", "assay": "cell-based or functional assay"}, "[6]": {"target": "T3, SARS-CoV-2 Spike on HIV-based …", "assay": "cell-based or functional assay", "remark": "listed apart in the source"}}, "note": "Several values for one entry are separate records, joined by “and”; a condition that tells them apart may be missing. Equal entries are not always repeated. Where two headings read alike, the source gives them in different places."}
{"binder": "B1", "values": [{"measurement": "kon", "setting": "mouse FcRn [1]", "value": 116000, "unit": "M⁻¹ s⁻¹"}, {"measurement": "Kd", "setting": "mouse FcγRI", "value": 8.63, "unit": "nM"}, {"measurement": "koff", "setting": "mouse FcγRI", "value": 0.000451, "unit": "s⁻¹"}, {"measurement": "kon", "setting": "mouse FcγRI", "value": 52200, "unit": "M⁻¹ s⁻¹"}, {"measurement": "Kd", "setting": "mouse FcRn [2]", "value": 1.06, "unit": "nM"}, {"measurement": "koff", "setting": "mouse FcRn [2]", "value": 0.000123, "unit": "s⁻¹"}]}
{"binder": "B2", "values": [{"measurement": "Median IC50 (PsV neutralization)", "setting": "[3]", "value": "0.61 µg/mL and 4.1 nM"}, {"measurement": "IC50 SARS-CoV2 PsV (µg/mL), IgG", "setting": "[4]", "value": 0.55, "unit": "µg/mL"}, {"measurement": "IC50 SARS-CoV2/SB2-P4-PB (µg/mL), IgG", "setting": "[5]", "value": 6.2, "unit": "µg/mL"}]}
{"binder": "B3", "values": [{"measurement": "Median IC50 (PsV neutralization)", "setting": "[6]", "value": "> 100 µg/mL and > 0.66 µM"}]}
